{
  "source": "paper PMC5155689",
  "about": "“Pro-invasive Effect of Proto-oncogene PBF Is Modulated by an Interaction with Cortactin” (The Journal of Clinical Endocrinology and Metabolism, 2016)",
  "binders": {"B1": {"name": "human Myc-CTTN (cortactin) (natural protein, UniProt Q14247 1-550, looked up)", "chain": "MWKASAGHAVSIAQDDAGADDWETDPDFVNDVSEKEQRWGAKTVQGSGHQEHINIHKLRENVFQEHQTLKEKELETGPKASHGYGGKFGVEQDRMDKSAVGHEYQSKLSKHCSQVDSVRGFGGKFGVQMDRVDQSAVGFEYQGKTEKHASQKDYSSGFGGKYGVQADRVDKSAVGFDYQGKTEKHESQRDYSKGFGGKYGIDKDKVDKSAVGFEYQGKTEKHESQKDYVKGFGGKFGVQTDRQDKCALGWDHQEKLQLHESQKDYKTGFGGKFGVQSERQDSAAVGFDYKEKLAKHESQQDYSKGFGGKYGVQKDRMDKNASTFEDVTQVSSAYQKTVPVEAVTSKTSNIRANFENLAKEKEQEDRRKAEAERAQRMAKERQEQEEARRKLEEQARAKTQTPPVSPAPQPTEERLPSSPVYEDAASFKAELSYRGPVSGTEPEPVYSMEAADYREASSQQGLAYATEAVYESAEAPGHYPAEDSTYDEYENDLGITAVALYDYQAAGDDEISFDPDDIITNIEMIDDGWWRGVCKGRYGLFPANYVELRQ", "notes": "cortactin (CTTN), human; Origene plasmid No. RC223259; the isoform of the clone follows from the catalogue number; also called myc-tagged CTTN; source: plasmid bought: Origene"}},
  "biological_target": "T1, Y174A PBF-HA (UniProt P53801 33-180, Y174A)",
  "T1 construct": "also called PBF mutant Y174A; phospho-null PBF mutant (Y174A)",
  "T1 sequence (looked up)": "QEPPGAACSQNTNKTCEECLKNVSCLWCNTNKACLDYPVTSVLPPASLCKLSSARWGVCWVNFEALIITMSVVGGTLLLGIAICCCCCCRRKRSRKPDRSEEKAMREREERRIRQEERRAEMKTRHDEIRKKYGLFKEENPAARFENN",
  "test": "co-IP; myc-tagged CTTN and HA-tagged PBF (WT or Y174A) transfected in MCF-7 and HeLa cells; in HeLa also after 50 nM dasatinib or vehicle",
  "settings": "partners not purified",
  "data": [
    {"binder": "B1", "values": [
      {"measurement": "fold change of binding against WT PBF", "value": "> 2", "unit": "fold"}
    ]}
  ]
}
